Reference: publication PMC4660579

Target: Drosophila melanogaster glutathione transferase epsilon 6 (Drosophila melanogaster)
Assay: crystal structure; DmGSTE6 at 15-20 mg/ml with 10 mM GSH, 20% PEG3350, 0.2 M sodium thiocyanate, sitting drop vapour diffusion at 288 K; 1.72 Å; homodimer

stoichiometry N: 2
Substance: Drosophila melanogaster glutathione transferase epsilon 6 (enzyme)
